The values that follow come from patent US6307026, “Humanized antibodies directed against A33 antigen” (Celltech Limited, dated 2001).

The target in assay [1] is T1, A33 antigen (human, UniProt Q99795).
T1 sequence: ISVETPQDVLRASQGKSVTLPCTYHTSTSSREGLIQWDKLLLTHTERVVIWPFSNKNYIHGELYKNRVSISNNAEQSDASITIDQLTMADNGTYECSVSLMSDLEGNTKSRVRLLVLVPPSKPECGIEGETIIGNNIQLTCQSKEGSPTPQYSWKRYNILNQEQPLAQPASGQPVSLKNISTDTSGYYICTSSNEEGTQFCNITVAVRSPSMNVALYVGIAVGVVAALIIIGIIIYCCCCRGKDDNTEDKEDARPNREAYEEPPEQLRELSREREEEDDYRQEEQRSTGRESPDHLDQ
The assay can be described thus: direct binding to ASPC-1 cells, FITC labelled anti-human IgG, FACScan. On the procedure: In the direct binding assay ASPC-1 or Colo205 cells were incubated at […] for 1 h. in the presence of various amounts of murine, chimeric or humanised A33, or non-specific antibody controls.
To confirm that the sequences obtained could combine to bind to the A33 antigen the chimeric expression plasmids pRO107 and pRO108 were transiently co-expressed in CHO-L761h cells (Cockett et al., 1990) at 200 mL scale. […] The binding of the antibody to the cells was measured using FITC labelled anti-human IgG and the bound fluorescence was detected in a FACScan analyser.

In assay [2] the target is T1, A33 antigen. Put plainly: competition assays of Example 1 (FITC-labelled murine A33 on cells, FACScan); reference.
Assay [3] concerns the target T1, A33 antigen. Put plainly: fluorescein-labelled antibody titrated on SW1222 cells, FACScan, Scatchard plot. On the procedure: The potency of hA33 (γ1) was compared to that of murine A33 by binding to cells of the human colerectal cancer cell line SW 1222. Fluorescently labelled conjugates of purified humanised and murine A33 were prepared to give approximately 1.5 molecules of fluorescein per antibody molecule. SW1222 cells (2.8×10⁵ per tube) were incubated with the fluorescent antibodies titrated in the range 3.57 µg/ml to 12 ng/ml in PBS with 5% foetal calf serum and 0.2% sodium azide on ice for 1.5 hours. After washing, antibody bound to the surface of the cells was detected by a FACscan (Becton Dickinson) as a fluorescent signal which was converted to numbers of antibody molecules bound per cell by calibration with fluorescent microbead standards.

B1: chimeric A33(γ1) (antibody, V domains shown)
VH: EVKLVESGGGLVKPGGSLKLSCAASGFAFSTYDMSWVRQTPEKRLEWVATISSGGSYTYYLDSVKGRFTISRDSARNTLYLQMSSLRSEDTALYYCAPTTVVPFAYWGQGTLVTVSA
VL: DIVMTQSQKFMSTSVGDRVSITCKASQNVRTVVAWYQQKPGQSPKTLIYLASNRHTGVPDRFTGSGSGTDFTLTISNVQSEDLADYFCLQHWSYPLTFGSGTKLEVKR
Turning to B1, the binding result with A33 antigen [1] is “binds”.

B2: mA33 Fab (Fab, V domains shown)
VH: B1 VH
VL: B1 VL
For B2, the binding result with A33 antigen [2] is “binds”.

B3: murine monoclonal antibody A33 (antibody, V domains shown)
VH: B1 VH
VL: B1 VL
modifications: FITC or fluorescein label on the antibody where it is used as labelled competitor or in the Scatchard assay (about 1.5 molecules of fluorescein per antibody molecule)
Regarding B3, the binding result with A33 antigen [3] was “binds”.
